Test [1] has as its target T1, mLATS2b fused to the GAL4 DNA binding domain (pGBKT7-mLATS2b) (mouse, UniProt P04386 1-147 (Saccharomyces cerevisiae entry)).
T1 construct: expressed in yeast AH109; also called clone 3-1; mLATS2/2b
The experiment in a line: yeast two-hybrid (growth on quadruple dropout plates).

Test [2] has as its target T2, mLATS2 fused to the GAL4 DNA binding domain (pGBKT7-mLATS2) (mouse, UniProt P04386 1-147; Q7TSJ6 1-1042).
T2 construct: Made by inserting the Bsm I-Xho I fragment of pcDNA3-mLATS2 into pGBKT7-mLATS2b; also called mLATS2/2b
The test is described as above.

The target in test [3] is T3, mLATS2N96 fused to the GAL4 DNA binding domain (pGBKT7-mLATS2N96) (mouse, UniProt P04386 1-147 (Saccharomyces cerevisiae entry)).
T3 construct: Made by removing the Pst I fragment from pGBKT7-mLATS2b; also called N-terminal 96 amino acids of mLATS2/2b
The test is described as above.

In test [4] the target is T1, mLATS2b fused to the GAL4 DNA binding …. The experiment in a line: yeast two-hybrid.

B1: mRBT1C76 fused to the GAL4 activation domain (pGADT7-mRBT1C76) (other, UniProt P04386 768-881, looked up)
chain: ANFNQSGNIADSSLSFTFTNSSNGPNLITTQTNSQALSQPIASSNVHDNFMNNEITASKIDDGNNSKPLSPGWTDQTAYNAFGITTGMFNTTTMDDVYNYLFDDEDTPPNPKKEPQNEIVSQADPVFLEALSSRYLGDSGLDDFFLDIDTSAVEKDVALPPPEPPHSLFCSPGSWEWNELDHIMEIILGS
notes: PCR product encoding the C-terminal 76 amino acids of mRBT1 cloned into EcoR I and Sma I sites of pGADT7; also called C-terminal 76 amino acids of mRBT1
Take B1: the binding result in test [1] and in test [2] was “no binding” throughout.

B2: mRBT1N121 fused to the GAL4 activation domain (pGADT7-mRBT1N121) (other, mouse, UniProt Q9ERC3 1-121, looked up, not shown: large carriers)
chain: MGGLKRKHSDLEEEEEEEKWDWSPTALRSYQQALLRISLDKVQRSLGPRAPSLRRHVLIHNTLQQLQAAIRLAPAPALPPEPLFLGEEDFSLSTTIGSILRELDTSMDEMEPPLNPAASSS
notes: Made by removing the Xho I fragment from pGADT7-mRBT1
On to B2, for which the binding result in test [1] is reported as “binds”; in test [3] it was “no binding”.

B3: mouse Replication Protein Binding Trans-Activator (mRBT1) fused to the GAL4 activation domain (pGADT7-mRBT1) (other, UniProt Q9ERC3 1-197, looked up, not shown: large carriers)
chain: MGGLKRKHSDLEEEEEEEKWDWSPTALRSYQQALLRISLDKVQRSLGPRAPSLRRHVLIHNTLQQLQAAIRLAPAPALPPEPLFLGEEDFSLSTTIGSILRELDTSMDEMEPPLNPAASSSPQNEIVSQADPVFLEALSSRYLGDSGLDDFFLDIDTSAVEKDVALPPPEPPHSLFCSPGSWEWNELDHIMEIILGS
As for B3, the results for the binding result in test [4] and in test [3] were “binds” and “no binding”, respectively.

Values taken from patent publication US20040009502A1 (published 2004).
